Results as given in a protein production outcome set (Wang et al. 2014).

assay: label from the status in PepcDB records

Q: With “MLVWEELREKALNKIYHDKEIGYLDPDILGFLLAFYRNRNDVYTQSSCSGRITIVDAEMPWDRKNSTIIFKNHLRITEQDLEDVLSKNQVRRLWLIVQGPIIHIYAKNIETGWDILKIAREAGFKHSGILATNQKGVLVELRTGIRMVHLLRESNTERVDKDKIKTLVNVCNEVLARGKQKMNLLKDLLSSSSNNSMELGKNSKLKTPI” as the sequence, how does the protein production read?
A: not failed

Q: Which protein production does the source give for “MLWRKRLFAHLYPGLSARHEALVAERKRALFREALRRARPERVLEIGPGPGTNLAHLPEGVAYLALEPNPFFHPRLREEARKRGLALTLLPGRAEAIPLPGGSVDLVVATLVLCSVADPEKAIEEVHRVLRPGGAYLFLEHVAAPKGAPLRLLQEAATPFFVFFGDGCHPNRKTLAQIQARFPRVEAEAFSLPLPVVAPHVAGLAFKELEHHHHHH” here?
A: failed

Q: With “MLYIFTPTFNRGYRLSYLYDSLCNQTNKNFIWLIVDDGSEDSTKEIVSNYIKENKVSIVYLYKRNGGKHSAYNLAMRYMQPSDYHVCVDSDDWLLEDAVEIIFKDLESLTLSNRYVGLVYPRYSLNQGNNWLNPKILEVNIPDLKYKYHLKIETCIVINNAYLVDFEFPCFEGENFLSEEIMYIYLSKKGYFCPQNRKIYCFDYLEDGLTSNIFKLWRKNFKGTIFSLENSYMYVMSFPNIFDRWWSAIKIKMNIQALKMTTLGVIPTLKSEEAGWKILLGFSYLWKVARFKKSELEHHHHHH” as the sequence, how does the protein production read?
A: not failed

Q: For “MMDTVKNRRTIRKYQQKDITPDLLNDLLETSFRASTMGGMQLYSVVVTRDAEKKEILSPAHFNQPMVKEAPVVLTFCADFRRFCKYCQERNAVPGYGNLMSFLNAAMDTLLVAQTFCTLAEEAGLGICYLGTTTYNPQMIIDALHLPELVFPITTVTVGYPAESPKQVDRLPIEGIIHEESYHDYTAEDINRLYAYKESLPENKLFIEENQKETLPQVFTDVRYTKKDNEFMSENLLKVLRRQGFMD”, which protein production is on record?
A: not failed

Q: With “MMDYALLSLMLLFTLLLAFILTRLKVSPVIAYLLGGLISFNYFHFDFNSSYFEILNFLALNLLAFEIGTSFDISRAKELFRRAMGIALTELILIVLISYFIGLYLLHLDLFASLFLVMASIDTSTSILYKIIGNKVDKNDRDLLVAVASVEDIEVFFLYSIAIALNGSFNVFRISFVILEVFIASLIIYAFAKYFLTGLSIFKFTSFEDESILILVPIVLVFVFEYISQVTQVPATLTMILAGIAFSSISGSEKVLRYTGPIREFSLIFFFLSVGSYLKITAGISTFVLISFIILAIKYFSFSTASWVSGTTLVKAFTNGLYMLPLSEFGIIVSLQALQQGIDIAIVYYISVVVVLVSSIIASILAVRVNVLQRVIGIVYSRSYFLRQLDSTIIWLNKTLSTNLSPILRSVLFRGFVKMFLYLILPYVLFPIINSIVKSIIDPINNLILQYLLYSGEIVIALFLLYLFLLEGSRLYSIINNEILVRIVRVRSRLFKEFWFGLTSFSSTFYTIILTIIYIIFEIIPLLYNFPIRLVFVPLLISLYFIYRYRAPPITYTRIDNKEADKIVKLSVKVIKKMRKRRSKRSIISTTKTVRREWS” as the sequence, how does the protein production read?
A: failed

Q: For “MMEFNVAENGGGSYRPLAILRWVMVVIFVSFGMQKFTLQSAQGIAQFITNSPFISWLSIFGLRGEAYVLGVAEFAIAALLAAGSFSPVLSAVGSFMGVVTFAITWSFFFTTPGVVTWSLSSDPMAWNLTGEFLFKDIVLLCVCAVLFLASLPRSAIRLRTG”, which protein production is on record?
A: failed

Q: Which protein production does the source give for “MMEKYNKFDLLWLLVPLSGLIVMGLMAVYSATNGSTESVPLFYKQLSWAVTGAIAASIIYFMDYRVVKDNAYFMYAAGIILLIAVLVFGKKVAGATSWVRFGMFSFQPSELTKMFTIIAMARFLSDDQTDIGNMMDLGKALAIALVPAGLIMLQPDMGTTLTCLSFIVPMIVLAGFDLYYILLGVVPVALMLSGFFNLTILATIAVLSMVMFFLLRKKFYLHQFLVTGGGLLGGLLTWKFTSVILKPHQIKRIQIFLDPTADPRGAGYNALQAKIAIASGGIFGKGFLHGTQTQLRYIPAQWTDFIFCVIAEELGFLGSTLLLLLFAALVLRLVWMVGAIKNRFVELLLAGYASLLLTHVVINIGMTIGVMPVIGVPLPFISYGGSSLVANMMMVGLAMNFSKNRRHIGY” here?
A: failed

Q: Which protein production does the source give for “MMEQEIWVRVTRAAAKRKASTAMGIDEDRLNKKRVFLGELLNVSNVNLLSNLN” here?
A: failed
